Positions count from the first letter of the chain named. Values belong to the binder of their own block, whether it stands above or below them.
Columns and labels:
[1] = target: T1, recombinant human proprotein convertase subtilisin/kexin 9 (hPCSK9), his-tagged (Homo sapiens, UniProt Q8NBP7); assay: SPR; hPCSK9 (10 μg/mL in 10 mM sodium acetate pH 4.0) on flow cell 2 of a CM5 chip at 790 RU, flow cell 1 blank; VHH-based proteins injected in two-fold dilutions (five or three points); 25 °C, Biacore T200; binding 120 s, dissociation 300 s or 350 s; regeneration glycine pH 2.3; details: both partners purified
T1 construct: human PCSK9, recombinant, his-tagged (Sinobiological); No catalogue number is printed; also called human PCSK9; source: bought: Sinobiological, China

[2] = target: T1, recombinant human proprotein convertase …; assay: as above; details: both partners purified; remark: listed apart in the source

T1 sequence (Q8NBP7 153-692): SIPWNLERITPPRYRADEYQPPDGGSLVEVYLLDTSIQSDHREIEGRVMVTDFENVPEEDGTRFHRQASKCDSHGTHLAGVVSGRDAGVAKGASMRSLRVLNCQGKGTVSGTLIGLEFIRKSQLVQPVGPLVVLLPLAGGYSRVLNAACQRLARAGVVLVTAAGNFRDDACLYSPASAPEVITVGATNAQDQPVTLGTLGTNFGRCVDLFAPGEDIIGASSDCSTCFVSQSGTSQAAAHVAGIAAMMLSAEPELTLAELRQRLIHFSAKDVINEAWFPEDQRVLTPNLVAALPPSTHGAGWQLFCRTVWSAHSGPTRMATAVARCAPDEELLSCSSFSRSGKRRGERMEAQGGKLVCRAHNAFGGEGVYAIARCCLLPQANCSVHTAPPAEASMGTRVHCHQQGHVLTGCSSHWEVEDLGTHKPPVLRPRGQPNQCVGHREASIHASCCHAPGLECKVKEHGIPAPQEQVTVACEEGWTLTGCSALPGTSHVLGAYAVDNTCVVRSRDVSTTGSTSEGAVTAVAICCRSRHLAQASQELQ

B2: VHH-Z5 (VHH-B11 humanized mutant) (VHH)
VHH: EVQLLESGGGLVQPGGSLRLSCAASGYTYSSNCMGWFRQAPGKEHEGVSSIYIGGGSTYYADSVKGRFTISQDNSKNTVYLQMNSLRAEDTAVYYCAVGCQGLVDFGYWDQGTQVTVSS
notes: as the chain of m2, mutated at several of the 17 hotspots; has 87Val in FR3; source: P. pastoris X33, secreted, purified
binding result [1]: binds

B3: humanized VHH-B11 (Hu-B11), mutated at all 17 hotspots (VHH)
VHH: B2 VHH with F37V, E44G, H45L, G47W, Q72R, V79L
notes: as the chain of m2 with 17 humanising mutations in FR1-3; source: P. pastoris X33, secreted, purified
Kd [1]: 39.7 nM

B4: VHH-B11 (monovalent camelid nanobody against hPCSK9) (VHH)
VHH: QVQLQESGGGSVQAGGSLRLSCTVSGYTYSSNCMGWFRQAPGKEHEGVASIYIGGGSTYYADSVKGRFTISQDNAKNTVYLQMNSLKPEDTAMYYCAVGCQGLVDFGYWDQGTQVTVSS
notes: VHH-B11, llama nanobody; Also expressed in E. coli and HEK293F; also called VHH-B11 Ab; wild type VHH-B11
Kd [2]: ~4.4 nM

Other lines, results leading:

binding result [1]: binds
B1: VHH-Z1 (VHH-B11 humanized mutant) (VHH)
VHH: B2 VHH with A23T, A24V, Q72R, V79L
notes: as the chain of m2, mutated at several of the 17 hotspots; has 80Pro in FR3; source: P. pastoris X33, secreted, purified

binding result [1]: binds
B5: VHH-Z3 (VHH-B11 humanized mutant) (VHH)
VHH: B2 VHH with S49A, S75A, V79L
notes: as the chain of m2, mutated at several of the 17 hotspots; has 54Ala in FR2 and 83Ala in FR3; source: P. pastoris X33, secreted, purified
